Blank lines part the entries; values can stand above or below the binder they belong to.
Legend:
[1] = biological target: T1, mouse serum albumin (MSA) (mouse, UniProt P07724 25-608); assay: inhibition biacore: dAb premixed with MSA, binding to MSA-coated CM5 chip, Klotz plot (estimated Kd)
T1 construct: Used coated, on a CM5 chip, in solution and biotinylated (about 2 biotins per molecule); also called biotinylated MSA
Experimental: Briefly, the dAbs were tested to determine the concentration of dAb required to achieve 200 RUs of response on a biacore CM5 chip coated with a high density of MSA. Once the required concentrations of dAb had been determined, MSA antigen at a range of concentrations around the expected Kd was premixed with the dAb and incubated overnight. Binding to the MSA coated biacore chip of dAb in each of the premixes was then measured at a high flow-rate of 30 μl/minute.
The purified dAbs were then analysed by inhibition biacore to determine Kd. […] Once the required concentrations of dAb had been determined, MSA antigen at a range of concentrations around the expected Kd was premixed with the dAb and incubated overnight. Binding to the MSA coated biacore chip of dAb in each of the premixes was then measured at a high flow-rate of 30 μl/minute.

[2] = biological target: T2, human TNFα (human, UniProt P01375 77-233); assay: TNF receptor assay: inhibition of TNF binding to TNFR1-Fc (ELISA)
T2 construct: Coated on plates, coupled to a CM5 chip, or added in solution (10 ng/ml) in the TNF receptor assay; the assay paragraphs often print only 'TNF'; also called TNF alpha; TAR1

[3] = biological target: T2, human TNFα; assay: not stated; printed under 'Equilibrium dissocation constant (Kd = Koff/Kon)' in the data summary
[4] = biological target: T2, human TNFα; assay: antigen ELISA
Experimental: (§1) Binding activity of dimeric recombinant proteins was compared to monomer by Protein A/L ELISA or by antigen ELISA. Briefly, a 96 well plate is coated with antigen or Protein A/L overnight at 4° C. The plate washed with 0.05% Tween-PBS, blocked for 2 hrs with 2% Tween-PBS. The sample is added to the plate incubated for 1 hr at room temperature. The plate is washed and incubated with the secondary reagent for 1 hr at room temperature. The plate is washed and developed with TMB substrate. Protein A/L-HRP or India-HRP was used as a secondary reagent.

[5] = biological target: bovine serum albumin (BSA) (bovine, UniProt P02769 25-607); assay: antigen ELISA
Experimental: as §1

[6] = biological target: T3, human p55 TNF receptor (human, UniProt P19438 30-211, limits assumed); assay: selection from dAb libraries
T3 construct: Coupled to a CM5 chip or coated on immunotubes/plates; also called TNF receptor 1; TNFα receptor
T3 sequence (looked up): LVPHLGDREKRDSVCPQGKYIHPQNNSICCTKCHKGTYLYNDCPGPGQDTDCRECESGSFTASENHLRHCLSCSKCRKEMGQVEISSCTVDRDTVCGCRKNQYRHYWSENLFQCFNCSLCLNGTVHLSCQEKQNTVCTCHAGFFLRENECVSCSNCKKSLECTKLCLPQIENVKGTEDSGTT

[7] = biological target: T4, hen egg lysozyme (HEL) (hen, UniProt P00698 19-147); assay: ELISA on HEL coated at 3 mg/ml, detection with 9e10 (anti-myc) and anti mouse IgG-HRP
T4 construct: also called hen egg white lysozyme

[8] = biological target: T2, human TNFα; assay: TNF receptor assay: inhibition of TNF binding to TNFR1-Fc (ELISA); remark: listed apart in the source
[9] = biological target: T2, human TNFα; assay: as above; remark: listed apart in the source
[10] = biological target: T2, human TNFα; assay: TNF receptor assay; fermenter-expressed, cation exchange FPLC pure dimer
[11] = biological target: T4, hen egg lysozyme (HEL); assay: selection from dAb libraries

T2 sequence (P01375 77-233 limits assumed): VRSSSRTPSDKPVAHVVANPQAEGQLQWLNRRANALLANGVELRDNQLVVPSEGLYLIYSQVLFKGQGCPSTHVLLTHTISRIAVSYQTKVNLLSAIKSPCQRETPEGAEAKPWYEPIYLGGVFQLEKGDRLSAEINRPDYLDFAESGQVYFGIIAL
T1 sequence (P07724 25-608 limits assumed): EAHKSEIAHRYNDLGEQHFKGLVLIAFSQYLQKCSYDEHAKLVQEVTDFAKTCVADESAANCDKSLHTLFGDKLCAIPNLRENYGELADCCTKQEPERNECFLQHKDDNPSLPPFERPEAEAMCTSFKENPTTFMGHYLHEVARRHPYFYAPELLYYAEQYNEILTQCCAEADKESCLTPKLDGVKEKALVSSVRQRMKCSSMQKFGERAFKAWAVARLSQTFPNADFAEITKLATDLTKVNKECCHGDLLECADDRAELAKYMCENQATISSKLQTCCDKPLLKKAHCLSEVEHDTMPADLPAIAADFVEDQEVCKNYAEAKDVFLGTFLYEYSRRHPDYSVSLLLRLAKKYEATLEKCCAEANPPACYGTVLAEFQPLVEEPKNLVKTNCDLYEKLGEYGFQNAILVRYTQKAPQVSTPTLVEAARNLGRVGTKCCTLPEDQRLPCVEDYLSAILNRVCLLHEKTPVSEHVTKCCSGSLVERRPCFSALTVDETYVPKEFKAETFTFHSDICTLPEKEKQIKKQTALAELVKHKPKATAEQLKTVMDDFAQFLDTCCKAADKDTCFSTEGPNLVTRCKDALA
T4 sequence (P00698 19-147): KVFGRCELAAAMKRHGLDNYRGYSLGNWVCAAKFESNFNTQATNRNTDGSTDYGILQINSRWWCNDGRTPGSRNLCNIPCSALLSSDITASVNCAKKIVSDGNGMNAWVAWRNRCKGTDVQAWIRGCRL
bovine serum albumin (BSA), sequence (P02769 25-607 limits assumed): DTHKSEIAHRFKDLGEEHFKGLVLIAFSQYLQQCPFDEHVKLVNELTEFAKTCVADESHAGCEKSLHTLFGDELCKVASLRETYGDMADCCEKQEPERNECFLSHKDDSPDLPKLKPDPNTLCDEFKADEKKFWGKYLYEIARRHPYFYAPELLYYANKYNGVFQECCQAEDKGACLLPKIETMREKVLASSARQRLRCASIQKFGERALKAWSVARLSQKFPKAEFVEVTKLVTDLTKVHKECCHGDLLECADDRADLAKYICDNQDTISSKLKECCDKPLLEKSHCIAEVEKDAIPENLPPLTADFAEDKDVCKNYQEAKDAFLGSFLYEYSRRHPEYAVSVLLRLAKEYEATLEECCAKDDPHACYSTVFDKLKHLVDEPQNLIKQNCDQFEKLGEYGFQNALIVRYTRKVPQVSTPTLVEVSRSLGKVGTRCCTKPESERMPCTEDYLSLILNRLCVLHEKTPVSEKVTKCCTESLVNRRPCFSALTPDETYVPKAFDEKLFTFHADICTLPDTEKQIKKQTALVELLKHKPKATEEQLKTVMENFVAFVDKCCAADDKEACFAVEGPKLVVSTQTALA

- binding result [4]: binds
- binding result [5]: no binding
B4: dAb1 monomer (other)
VL: DIQMTQSPSSLSASVGDRVTITCRASQSIYDALEWYQQKPGKAPKLLIYTASRLQSGVPSRFSGSGSGTDFTLTISSLQPEDFATYYCQQVMQRPVTFGQGTKVEIKR
notes: Vκ dAb monomer; also called partner dAb in TAR1-5d1, d5, d6

- binding result [6]: binds
- ELISA signal (background) [7]: 0.069
B5: TAR2h-5 (other)
VH: EVQLLESGGGLVQPGGSLRLSCAASGFTFDLYNMFWVRQAPGKGLEWVSFISQTGRLTWYADSVKGRFTISRDNSKNTLYLQMNSLRAEDTAVYYCAKTLEDFDYWGQGTLVTVSS
notes: VH dAb against TNF receptor 1; also called TAR2-5; TAR2h-5 VH dAb

- binding result [5]: no binding
B7: dAb3 monomer (other)
VL: DIQMTQSPSSLSASVGDRVTITCRASQSVKEFLWWYQQKPGKAPKLLIYMASNLQSGVPSRFSGSGSGTDFTLTISSLQPEDFATYYCQQKFKLPRTFGQGTKVEIKR
notes: Vκ dAb monomer; also called partner dAb in TAR1-5d4

- IC50 [9]: 2 to 5 nM
- IC50 [10]: 8 nM
B8: TAR1-5-19d4 (other)
chain: DIQMTQSPSSLSASVGDRVTITCRASQSIDSYLHWYQQKPGKAPKLLIYSASELQSGVPSRFSGSGSGTDFTLTISSLQPEDFATYYCQQVVWRPFTFGQGTKVEIKRGGGGSGGGGSGGGGSGGGGSGGGGSDIQMTQSPSSLSASVGDRVTITCRASQSVKEFLWWYQQKPGKAPKLLIYMASNLQSGVPSRFSGSGSGTDFTLTISSLQPEDFATYYCQQKFKLPRTFGQGTKVEIKR
notes: also called TAR1-5-19 dimer 4

- binding result [11]: binds
B9: HEL4 (other)
VH: EVQLLESGGGLVQPGGSLRLSCAASGFRISDEDMGWVRQAPGKGLEWVSSIYGPSGSTYYADSVKGRFTISRDNSKNTLYLQMNSLRAEDTAVYYCASALEPLSEPLGFWGQGTLVTVSS
notes: VH dAb; also called HEL4 VH dAb; anti-hen egg white lysozyme dAb

Continued, binder first:

B1: MSA16 (other)
VL: DIQMTQSPSSLSASVGDRVTITCRASQSIIKHLKWYQQKPGKAPKLLIYGASRLQSGVPSRFSGSGSGTDFTLTISSLQPEDFATYYCQQGARWPQTFGQGTKVEIK
notes: also called clone 16; clone 21
- Kd [1]: 200 nM

B2: MSA26 (other)
VL: DIQMTQSPSSLSASVGDRVTITCRASQSIYYHLKWYQQKPGKAPKLLIYKASTLQSGVPSRFSGSGSGTDFTLTISSLQPEDFATYYCQQVRKVPRTFGQGTKVEIK
notes: also called clone 26; clone 25
- Kd [1]: 70 nM

B3: TAR1-5-19 monomer (other)
VL: DIQMTQSPSSLSASVGDRVTITCRASQSIDSYLHWYQQKPGKAPKLLIYSASELQSGVPSRFSGSGSGTDFTLTISSLQPEDFATYYCQQVVWRPFTFGQGTKVEIKR
notes: also called TAR1-5-19 dAb
- IC50 [2]: 30 nM
- Kd [3]: 30 nM

B6: TAR1-5-19CYS trimer (TMEA) (other)
VL: DIQMTQSPSSLSASVGDRVTITCRASQSIDSYLHWYQQKPGKAPKLLIYSASELQSGVPSRFSGSGSGTDFTLTISSLQPEDFATYYCQQVVWRPFTFGQGTKVEIKRC
modifications: C-terminal Cys coupled to TMEA (Tris[2-maleimidoethyl]amine)
notes: also called TAR1-5-19 homotrimer; trimeric TAR1-5-19CYS
- IC50 [8]: 0.3 nM
